Test results taken from PMC2955587, “Novel β-N-acetylglucosaminidases from Vibrio harveyi 650: Cloning, expression, enzymatic properties, and subsite identification” (BMC Biochemistry, 2010).

Key:
[1] = test system: CC(=O)N[C@H]1[C@H](Oc2ccc([N+](=O)[O-])cc2)O[C@H](CO)[C@@H](O)[C@@H]1O; assay: purified protein; details: 0.1 M phosphate pH 7.0, 37°C, 0-500 μM substrate, enzyme unstable
Source text: initial rates, reducing sugar (DNS) assay, nonlinear regression on VhNag1

[2] = substrate: CC(=O)N[C@H]1[C@H](Oc2ccc([N+](=O)[O-])cc2)O[C@H](CO)[C@@H](O)[C@@H]1O; assay: initial rates, reducing sugar (DNS) assay, nonlinear regression; assay type: biochemical, Vibrio harveyi; details: 0.1 M phosphate pH 7.0, 37°C, 0-500 μM substrate
Source text: initial rates, reducing sugar (DNS) assay, nonlinear regression on VhNag2

Molecule	Km [1] [µM]	kcat [1] [s⁻¹]	kcat/Km [1] [M⁻¹ s⁻¹]	Km [2] [µM]	kcat [2] [s⁻¹]	kcat/Km [2] [M⁻¹ s⁻¹]
VhNag1 (Vibrio harveyi)	172 ± 48	0.08	465			
VhNag2 (Vibrio harveyi) (protein, full-length, 1,926 bp, 73,143 Da, C-terminal His6 (pQE60), E. coli M15, Ni-NTA; no signal peptide predicted) EYRVDLVVLSEQKQNCRFGLTFHNLSDQDLNSWGLTFAFDRYILPDSVSNGQLTQIGSFCTLKPEGIVLAANHHYYCEFSIGSNPFRYYSDGFNEAMIDFVVDGQPQRAQVDVTPIVLASPYRERSDIPASLTHAQPLLPKPNHIEVSDHSFTFDEQAGVAIYTDLANSAKAWLLEELQRIHQFTLSSSNSGKIIFKSNPTLDEGAYKLKVSEESIKIEAGSSSGFTHACATLLQLLKRDEATKTMEAVCCSIIDSPRFRYRGMMLDCARHFHSVEQVKRLINLLAHYKLNTFHWHLTDDEGWRVEIKSLPQLTEIGAWRGIDETIEPQYTHLSQRYGGFYTQEEIRDVIAFAEQRGITIIPEIDVPGHCRAAIKSLPHLLIEAEDTTEYRSIQHYNDNVINPALPGSYEFIDKVLEEIAALFPAPYVHIGADEVPNGVWSKSPACQALMEQLGYTDYKELQGHFLRHAEDKLRKLGKRMLGWEEAQHGNKVSKDTVIYSWLSEEAALNCARQGFDVVLQPAQTTYLDMTQDYAPEEPGVDWANPLPLEKAYNYEPLAEVPADDPIRKRIWGIQTALWCEIINNPSRMDYMIFPRLTAMAEACWTEKQHRDWTDYLSRLKGHLPLLDLQGVNYRKPWK				77 ± 17	0.38	4940
